In PMC8692152, “Cellular Id1 inhibits hepatitis B virus transcription by interacting with the novel covalently closed circular DNA-binding protein E2F4”:

Key:
E2F4 1-180 [1] = biological target: T1, E2F4 1-180 (UniProt Q16254 1-180); assay: SPR; SPR: Biacore X100, SA chip, DNA in PBS (137 mM NaCl, 2.7 mM KCl, 10 mM Na2HPO4, 2 mM KH2PO4, pH 7.4), protein 10-320 nM (Fig. S3D legend prints mM); ITC: 250 mM NaCl, 50 mM Tris-HCl pH 7.5; EMSA: Beyotime kit, 6% native gel; temperatures not stated; conditions: protein: recombinant; tags: His (pET28a); chain copies: 2; label: 5'-biotin on sense strand; blunt
E2F4 1-180 [2] = biological target: T1, E2F4 1-180; assay: SPR; random control DNA; SPR: Biacore X100, SA chip, DNA in PBS (137 mM NaCl, 2.7 mM KCl, 10 mM Na2HPO4, 2 mM KH2PO4, pH 7.4), protein 10-320 nM (Fig. S3D legend prints mM); ITC: 250 mM NaCl, 50 mM Tris-HCl pH 7.5; EMSA: Beyotime kit, 6% native gel; temperatures not stated; conditions: protein: recombinant; tags: His (pET28a); chain copies: 2; label: 5'-biotin on sense strand; blunt
E2F4 1-88 [3] = biological target: T2, E2F4 1-88 (UniProt Q16254 1-88); assay: ITC; SPR: Biacore X100, SA chip, DNA in PBS (137 mM NaCl, 2.7 mM KCl, 10 mM Na2HPO4, 2 mM KH2PO4, pH 7.4), protein 10-320 nM (Fig. S3D legend prints mM); ITC: 250 mM NaCl, 50 mM Tris-HCl pH 7.5; EMSA: Beyotime kit, 6% native gel; temperatures not stated; conditions: protein: recombinant; tags: GST removed with 3C protease (ITC methods); pET28 His construct also described; chain copies: 2; blunt
E2F4 1-88 [4] = biological target: T2, E2F4 1-88; assay: ITC; error exceeds value; SPR: Biacore X100, SA chip, DNA in PBS (137 mM NaCl, 2.7 mM KCl, 10 mM Na2HPO4, 2 mM KH2PO4, pH 7.4), protein 10-320 nM (Fig. S3D legend prints mM); ITC: 250 mM NaCl, 50 mM Tris-HCl pH 7.5; EMSA: Beyotime kit, 6% native gel; temperatures not stated; conditions: protein: recombinant; tags: GST removed with 3C protease (ITC methods); pET28 His construct also described; chain copies: 2; blunt

T2 sequence (Q16254 1-88): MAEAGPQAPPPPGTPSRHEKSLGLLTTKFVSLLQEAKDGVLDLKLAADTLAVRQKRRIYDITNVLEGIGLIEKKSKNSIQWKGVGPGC
T1 sequence (Q16254 1-180): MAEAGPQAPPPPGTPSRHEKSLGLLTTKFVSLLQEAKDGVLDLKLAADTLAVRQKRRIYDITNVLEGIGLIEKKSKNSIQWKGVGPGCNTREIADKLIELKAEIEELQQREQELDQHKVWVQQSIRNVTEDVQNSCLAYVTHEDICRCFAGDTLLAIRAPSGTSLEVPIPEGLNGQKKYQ

B1: Biotin-Cp2 (SPR) (dsDNA)
DNA 1: TTAGATTAAAGGTCTTTGT
DNA 2: ACAAAGACCTTTAATCTAA
E2F4 1-180 [1]
  Kd: 0.0878 µM

B2: Control-DNA-biotin (SPR) (dsDNA)
DNA 1: ATGATGTCACCACAAGAAGT
DNA 2: ACTTCTTGTGGTGACATCAT
E2F4 1-180 [2]
  Kd: 0.136 µM

B3: Cp2 (ITC) (dsDNA)
DNA 1: TTAGATTAAAGGTCTTTGT
DNA 2: ACAAAGACCTTTAATCTAA
E2F4 1-88 [3]
  Kd: 10.3 ± 4.37 µM

B4: Cp2-mut (ITC) (dsDNA)
DNA 1: TTAGATTAAATTTCTTTGT
DNA 2: ACAAAGAAATTTAATCTAA
E2F4 1-88 [4]
  Kd: 19.6 ± 31.2 µM
